Like-named read-outs stand apart in the source and are kept apart here.
Legend:
[1] = target: Insulin (purified, used in vitro); experiment: BLI
[2] = target: Insulin (purified, used in vitro)
[3] = target: Insulin (purified, used in vitro); experiment: BLI; remark: listed apart in the source

B1: Recombinant His-tagged secretagogin (SCGN) (natural protein)
chain: MDNARRKTPARLDAACFWQIWQRFDKEEKGYIRETELDAFFDHLLAKSGTEDTLMEENVQKVKEQLMTSHNVSKEGRILMKELASMFLSEDENFLLFFRLETPLDNSVEFMQIWRKYDADSSGFISAAELCNFLRDLFLHHKKNISEAELEEYTSTMMKIFDKNKDGRLDLNDLARILALQENFLLQFKMDASSTEERKRDFEKIFAHYDVSKTGALEGPEVDGFVKDMMELVQPSISGVDLDKFREILLRHCDVNKDGKIQKSELALCLGLKINP
[1]
  Kd: 1450 nM
[2]
  ThT fluorescence, heat-induced fibrillation of insulin with apo-SCGN (1:2 ratio): 50%
[3]
  Kd: 1840 nM
